In patent publication US20240000938A1 (published 2024):

T1: HA-1(R), allelic variant; Rho GTPase activating protein 45 (HMHA1) peptide on HLA-A*02:01 (human)
T1 peptide: VLRDDLLEA

T2: HA-1 variant H, HA-1(H); Rho GTPase activating protein 45 (HMHA1) peptide on HLA-A*02:01 (human)
T2 peptide: VLHDDLLEA

T3: mH-Y (MiHA-Y) peptide on H-2Db (mouse)
T3 peptide: KCSRNRQYL

B1: KP7 HA-1H TCR (TCR, V domains shown)
Valpha: KNEVEQSPQNLTAQEGEFITINCSYSVGISALHWLQQHPGGGIVSLFMLSSGKKKHGRLIATINIQEKHSSLHITASHPRDSAVYICAVRSVSGAGSYQLTFGKGTKLSVIP
Vbeta: DTGVSQNPRHKITKRGQNVTFRCDPISEHNRLYWYRQTLGQGPEFLTYFQNEAQLEKSRLLSDRFSAERPKGSFSTLEIQRTEQGDSAMYLCASSIDSFNEQFFGPGTRLTVL
B2: H-Y TCR Jb2.3L (TCR, V domains shown)
Valpha: AQSVDQPDAHVTLSEGASLELRCSYSYSAAPYLFWYVQYPGQSLQFLLKYITGDTVVKGTKGFEAEFRKSNSSFNLKKSPAHWSDSAKYFCALEGQDQGGSAKLIFGEGTKLTVSS
Vbeta: EAAVTQSPRNKVAVTGGKVTLSCNQTNNHNNMYWYRQDTGHGLRLIHYSYGAGSTEKGDIPDGYKASRPSQENFSLILELATPSQTSVYFCASGDNSAETLYFGPGTRLLVL

Key:
Assay in all cases: activation reporter or marker
[1] = biological target: T1, HA-1(R), allelic variant; Rho GTPase …
[2] = biological target: T2, HA-1 variant H, HA-1(H); Rho GTPase …
[3] = biological target: T3, mH-Y (MiHA-Y) peptide on H-2Db

Binder	binding result [1]	binding result [2]	binding result [3]
B1	no recognition	recognises	
B2			recognises
